Reference: PMC5998080, “Structural and functional analysis of mRNA export regulation by the nuclear pore complex” (Nature Communications, 2018)
One block for each molecule: values may come before it.

Columns and labels:
[1] = target: T1, S. cerevisiae Gle1^CTD•Nup42^GBM•Dbp5 (Saccharomyces cerevisiae, UniProt P20449+Q12315); assay: size exclusion chromatography, complex formation; assay type: binding; settings: 0.5 mM IP6, 20 mM Tris pH 8.0, 100 mM NaCl, 5 mM DTT; IP6 bridges Gle1 and Dbp5
T1 construct: with Nucleoporin NUP42
T1 sequence (Q12315 243-538): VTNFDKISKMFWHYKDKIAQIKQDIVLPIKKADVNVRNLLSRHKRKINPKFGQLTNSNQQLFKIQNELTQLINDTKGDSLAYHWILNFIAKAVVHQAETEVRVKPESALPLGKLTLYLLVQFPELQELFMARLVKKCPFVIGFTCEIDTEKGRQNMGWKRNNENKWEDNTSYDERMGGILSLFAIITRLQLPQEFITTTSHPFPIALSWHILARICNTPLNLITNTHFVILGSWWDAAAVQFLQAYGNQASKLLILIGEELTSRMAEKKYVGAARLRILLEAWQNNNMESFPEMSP
T1 sequence (P20449 1-482): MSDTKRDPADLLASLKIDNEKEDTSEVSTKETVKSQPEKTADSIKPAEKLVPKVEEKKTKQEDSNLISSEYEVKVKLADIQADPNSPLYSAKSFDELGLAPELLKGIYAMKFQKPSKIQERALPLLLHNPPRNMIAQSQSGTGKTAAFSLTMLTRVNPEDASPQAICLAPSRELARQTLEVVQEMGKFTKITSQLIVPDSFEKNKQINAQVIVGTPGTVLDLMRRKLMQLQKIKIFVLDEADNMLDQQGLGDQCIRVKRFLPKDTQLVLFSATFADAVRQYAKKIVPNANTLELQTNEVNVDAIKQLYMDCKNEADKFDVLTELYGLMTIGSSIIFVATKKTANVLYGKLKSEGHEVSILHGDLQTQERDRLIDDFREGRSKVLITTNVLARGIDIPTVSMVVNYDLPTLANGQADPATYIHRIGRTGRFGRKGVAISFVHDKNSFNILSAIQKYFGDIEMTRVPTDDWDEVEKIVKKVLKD
T1 sequence (P49686 397-430 partner): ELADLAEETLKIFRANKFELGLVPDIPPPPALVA

[2] = target: T2, C. thermophilum Gle1^CTD•Nup42^GBM (Thermochaetoides thermophila, UniProt G0S7F3); assay: X-ray crystal structure ([…] Å); assay type: binding; settings: pH 6.3 MES, zinc sulfate; pocket on Gle1
T2 construct: E. coli; tags cleaved; with Nucleoporin NUP42

S. cerevisiae Gle1^CTD = target: T3, S. cerevisiae Gle1^CTD (Saccharomyces cerevisiae, UniProt Q12315); assay: differential scanning fluorimetry; assay type: binding; settings: Tm without to with IP6 (25 µM); no Nup42; 20 mM Tris pH 8.0, 100 mM NaCl, 5 mM DTT
T3 construct: C-terminal domain alone (borders in supplement); His6-scGle1CTD from E. coli, tag cleaved
T3 sequence (Q12315 243-538): T1 sequence (Q12315 243-538)

[3] = target: T4, S. cerevisiae Gle1^CTD•Nup42^GBM (Saccharomyces cerevisiae, UniProt Q12315); assay: isothermal titration calorimetry; assay type: binding
T4 construct: E. coli; His6 tag cleaved with PreScission; with Nucleoporin NUP42
T4 sequence (Q12315 243-538): T1 sequence (Q12315 243-538)
T4 sequence (P49686 397-430 partner): T1 sequence (P49686 397-430 partner)

[4] = target: T5, Nup155 C-terminal domain (Nup155^CTD, residues 870–1391) (human, UniProt O75694 870-1391); assay: SEC; Superdex 200 10/300 GL; 20 mM TRIS (pH 8.0), 100 mM NaCl, 5 mM DTT; proteins mixed and incubated 30 min on ice, twofold molar excess of the smaller component; fractions on Coomassie-stained SDS-PAGE; settings: both partners purified
T5 construct: human Nup155, C-terminal domain, residues 870-1391; also called His6-Nup155^CTD; source: E. coli BL21-CodonPlus(DE3)-RIL, purified (Ni-NTA, HiTrap Q, Superdex 200); not shown: His6, N-terminal, cleaved
T5 sequence (looked up): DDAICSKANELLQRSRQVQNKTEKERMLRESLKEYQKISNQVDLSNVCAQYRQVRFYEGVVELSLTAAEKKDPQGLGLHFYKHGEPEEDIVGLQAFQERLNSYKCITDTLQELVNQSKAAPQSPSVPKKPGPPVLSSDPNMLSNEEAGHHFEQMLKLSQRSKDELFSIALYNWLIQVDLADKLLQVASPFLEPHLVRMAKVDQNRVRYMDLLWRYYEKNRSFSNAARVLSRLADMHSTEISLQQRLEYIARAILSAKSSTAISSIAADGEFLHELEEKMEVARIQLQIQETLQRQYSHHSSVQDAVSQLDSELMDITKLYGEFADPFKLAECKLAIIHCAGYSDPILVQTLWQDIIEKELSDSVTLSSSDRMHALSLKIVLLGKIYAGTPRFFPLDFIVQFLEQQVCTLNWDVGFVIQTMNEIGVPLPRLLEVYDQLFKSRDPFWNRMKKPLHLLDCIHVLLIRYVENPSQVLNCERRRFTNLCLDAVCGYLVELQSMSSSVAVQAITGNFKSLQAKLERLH

GST-Nup155^CTD = target: T6, GST-Nup155^CTD (human, UniProt O75694 870-1391); assay: pull-down; GST-Nup155^CTD (20 μM) preincubated with a twofold molar ratio of Nup98^ΔFG or SUMO-Gle1^N, then with 0-8-fold molar ratios of the other protein; Glutathione Sepharose beads; 20 mM TRIS (pH 8.0), 100 mM NaCl, 5 mM DTT; settings: both partners purified
T6 construct: human Nup155, C-terminal domain, residues 870-1391; Limits are those printed for Nup155^CTD; source: E. coli BL21-CodonPlus(DE3)-RIL, purified (Glutathione Sepharose, HiTrap Q, Superdex 200); not shown: GST, N-terminal, kept
T6 sequence (looked up): T5 sequence (looked up)

H. sapiens DDX19 = target: T7, H. sapiens DDX19 (human, UniProt Q9UMR2 1-479); assay: SEC; human DDX19 with Gle1^CTD•Nup42^GBM, without and with 0.5 mM IP6 (IP6 partially reduced complex formation); 20 mM TRIS (pH 8.0), 100 mM NaCl, 5 mM DTT; settings: both partners purified
T7 construct: human DEAD-box helicase DDX19 (the printed residue numbers run to 479); also called hsDDX19; wild-type DDX19; source: E. coli BL21-CodonPlus(DE3)-RIL, purified (Ni-NTA, HiTrap Q, Superdex 200); not shown: His6, N-terminal, cleaved
T7 sequence (looked up): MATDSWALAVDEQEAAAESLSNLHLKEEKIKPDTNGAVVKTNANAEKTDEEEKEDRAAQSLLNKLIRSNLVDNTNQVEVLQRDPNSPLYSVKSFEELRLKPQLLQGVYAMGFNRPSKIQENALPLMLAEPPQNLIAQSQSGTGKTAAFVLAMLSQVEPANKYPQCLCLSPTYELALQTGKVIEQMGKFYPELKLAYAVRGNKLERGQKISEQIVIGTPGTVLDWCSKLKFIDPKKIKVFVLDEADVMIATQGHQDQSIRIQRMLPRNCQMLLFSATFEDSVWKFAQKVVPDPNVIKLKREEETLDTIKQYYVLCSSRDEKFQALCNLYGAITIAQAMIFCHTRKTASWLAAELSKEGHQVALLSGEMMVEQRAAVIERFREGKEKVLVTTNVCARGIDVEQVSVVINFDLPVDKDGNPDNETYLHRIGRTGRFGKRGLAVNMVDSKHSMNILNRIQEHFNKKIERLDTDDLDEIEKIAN

[5] = target: T8, H. sapiens DDX19^∆N53 (residues 54–479) (human, UniProt Q9UMR2 54-479); assay: crystal structure; H. sapiens Gle1^CTD•Nup42^GBM•DDX19^∆N53, reconstituted from equimolar purified Gle1^CTD•Nup42^GBM and DDX19^∆N53; with ADP 3.6 Å or AMP-PNP•Mg^2+ 3.4 Å; settings: both partners purified
T8 construct: human DEAD-box helicase DDX19 without the flexible N-terminal extension, residues 54-479; source: E. coli BL21-CodonPlus(DE3)-RIL, purified (Ni-NTA, HiTrap Q, Superdex 200); not shown: His6, N-terminal, cleaved
T8 sequence (looked up): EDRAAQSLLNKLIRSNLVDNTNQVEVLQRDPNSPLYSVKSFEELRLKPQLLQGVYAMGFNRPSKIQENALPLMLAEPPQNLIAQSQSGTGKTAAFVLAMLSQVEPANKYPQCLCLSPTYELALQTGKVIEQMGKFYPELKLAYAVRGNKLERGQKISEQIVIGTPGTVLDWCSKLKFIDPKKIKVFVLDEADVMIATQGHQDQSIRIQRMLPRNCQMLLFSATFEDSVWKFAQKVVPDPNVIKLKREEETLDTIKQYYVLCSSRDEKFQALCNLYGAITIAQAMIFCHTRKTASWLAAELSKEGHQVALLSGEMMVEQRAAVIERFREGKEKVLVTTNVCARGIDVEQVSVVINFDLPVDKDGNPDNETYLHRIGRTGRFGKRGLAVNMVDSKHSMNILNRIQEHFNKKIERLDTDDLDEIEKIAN

DDX19 (wild type) = target: T9, DDX19 (wild type) (Homo sapiens, UniProt Q9UMR2 1-479); assay: EMSA; + 1 uM Gle1CTD(382-698)•Nup42GBM(379-423): binding enhanced; 1 mM AMP-PNP, 2 mM MgCl2; 20 mM TRIS pH 8.0, 100 mM NaCl, 2 mM MgCl2, 1 mM DTT, 10% glycerol, 1 mM AMP-PNP; 25 ng RNA in 10 ul; 20 min on ice; 1.4% native agarose gel, 0.25x TBE, room temperature; settings: protein: recombinant; tags: His6 removed by PreScission protease; label: none (SYBR gold stain); single strand
T9 sequence: T7 sequence (looked up)

T2 sequence (G0S381 441-557): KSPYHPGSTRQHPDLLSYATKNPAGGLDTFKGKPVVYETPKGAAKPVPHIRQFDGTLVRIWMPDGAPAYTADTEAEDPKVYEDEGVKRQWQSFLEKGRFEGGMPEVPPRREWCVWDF
T2 sequence (G0S7F3 216-529): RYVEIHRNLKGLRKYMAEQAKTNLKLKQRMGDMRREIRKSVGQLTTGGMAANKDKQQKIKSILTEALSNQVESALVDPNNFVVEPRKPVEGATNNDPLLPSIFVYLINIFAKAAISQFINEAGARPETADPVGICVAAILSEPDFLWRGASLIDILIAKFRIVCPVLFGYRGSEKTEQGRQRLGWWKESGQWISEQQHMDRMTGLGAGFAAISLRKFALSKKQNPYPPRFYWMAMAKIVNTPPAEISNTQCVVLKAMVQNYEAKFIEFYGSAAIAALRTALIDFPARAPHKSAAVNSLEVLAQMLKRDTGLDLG

Molecule: O=P(O)(O)O[C@H]1[C@H](OP(=O)(O)O)[C@@H](OP(=O)(O)O)[C@H](OP(=O)(O)O)[C@@H](OP(=O)(O)O)[C@H]1OP(=O)(O)O [IP6]
- size exclusion chromatography, complex formation [1]: Dbp5 and Gle1^CTD•Nup42^GBM only formed a complex in the presence of IP6
- X-ray crystal structure (2.17 Å) [2]: IP6 binds to C. thermophilum Gle1^CTD and to S. cerevisiae Gle1^CTD in a similar orientation
- Tm (S. cerevisiae Gle1^CTD): 22 to 37 °C
- Kd [3]: ~3 nM

B1: Nup98 lacking the FG repeat region (Nup98^∆FG, residues 498–880) (domain or fragment, human, UniProt P52948 498-880, looked up)
chain: QAVLQQHINSLTYSPFGDSPLFRNPMSDPKKKEERLKPTNPAAQKALTTPTHYKLTPRPATRVRPKALQTTGTAKSHLFDGLDDDEPSLANGAFMPKKSIKKLVLKNLNNSNLFSPVNRDSENLASPSEYPENGERFSFLSKPVDENHQQDGDEDSLVSHFYTNPIAKPIPQTPESAGNKHSNSNSVDDTIVALNMRAALRNGLEGSSEETSFHDESLQDDREEIENNSYHMHPAGIILTKVGYYTIPSMDDLAKITNEKGECIVSDFTIGRKGYGSIYFEGDVNLTNLNLDDIVHIRRKEVVVYLDDNQKPPVGEGLNRKAEVTLDGVWPTDKTSRCLIKSPDRLADINYEGRLEAVSRKQGAQFKEYRPETGSWVFKVSHF
notes: human Nup98, construct lacking the FG repeat region, residues 498-880; also called Nup98^ΔFG; His6-SUMO-Nup98^∆FG; source: E. coli BL21-CodonPlus(DE3)-RIL, purified (Ni-NTA, HiTrap Q, Superdex 200); not shown: His6, N-terminal, cleaved; SUMO, N-terminal, cleaved
- binding result [4]: binds
- binding result (GST-Nup155^CTD): binds

B2: H. sapiens Gle1^CTD•Nup42^GBM complex (complex, human)
chain 1: VQDITMQWYQQLQDASMQCVLTFEGLTNSKDSQAKKIKMDLQKAATIPVSQISTIAGSKLKEIFDKIHSLLSGKPVQSGGRSVSVTLNPQGLDFVQYKLAEKFVKQGEEEVASHHEAAFPIAVVASGIWELHPRVGDLILAHLHKKCPYSVPFYPTFKEGMALEDYQRMLGYQVKDSKVEQQDNFLKRMSGMIRLYAAIIQLRWPYGNRQEIHPHGLNHGWRWLAQILNMEPLSDVTATLLFDFLEVCGNALMKQYQVQFWKMLILIKEDYFPRIEAITSSGQMGSFIRLKQFLEKCLQHKDIPVPKGFLTSSFWRS
chain 2: IIATDNVLFTPRDKLTVEELEQFQSKKFTLGKIPLKPPPLELLNV
notes: human Gle1 (splice variant Gle1B), C-terminal domain, residues 382-698; Chains as m16 and m17; also called hsGle1^CTD•His6-hsNup42^GBM; source: E. coli BL21-CodonPlus(DE3)-RIL, co-expressed, purified (Ni-NTA, heparin, Superdex 75); not shown: His6, N-terminal, cleaved
- binding result (H. sapiens DDX19): binds
- binding result [5]: binds

B5: 53-nt ssRNA probe (ssRNA)
RNA: GUUUUUUUUUUUUUUUUUUUUCUCGAUCCGUAGUGAUCUACUGAGCAUCUCCC
- binding result (DDX19 (wild type)): binds

Second part, the molecule after the results:

- binding result (H. sapiens DDX19): binds
- binding result [5]: binds
B3: H. sapiens Gle1 C-terminal domain (Gle1^CTD, residues 382–698) (domain or fragment, human, UniProt Q53GS7 382-698, looked up)
chain: B2 chain 1
notes: human Gle1 (splice variant Gle1B), C-terminal domain, residues 382-698; also called hsGle1^CTD; source: E. coli BL21-CodonPlus(DE3)-RIL, co-expressed with His6-hsNup42^GBM, purified (Ni-NTA, heparin, Superdex 75)

- binding result [4]: binds
- binding result (GST-Nup155^CTD): binds
B4: SUMO-Gle1^N (SUMO fusion of human Gle1 residues 2–33) (domain or fragment, UniProt Q53GS7 2-33, looked up)
chain: PSEGRCWETLKALRSSDKGRLCYYRDWLLRRE
notes: human Gle1 (splice variant Gle1B), N-terminal residues 2-33; No cleavage of the His6-SUMO tag is described for this construct; also called His6-SUMO-hsGle1^N; source: E. coli BL21-CodonPlus(DE3)-RIL, purified (Ni-NTA, HiTrap Q, Superdex 200); not shown: SUMO, N-terminal, kept
